From the nanobody polyreactivity screen of Harvey et al. (2022)

Experiment: yeast display, Sf9 membrane polyspecificity reagent, FACS + sequencing; frameworks hold sequencing errors
In short: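 Synthetic nanobody libraries on Saccharomyces cerevisiae BJ5465 were galactose-induced for 36–48 hours, stained 1 hour at 4 °C with 10% biotinylated, detergent-solubilized Sf9 membrane reagent and enriched on streptavidin microbeads. FACS then separated cells into low and high (top ~1%) gates by anti-HA (expression) and streptavidin (reagent binding) fluorescence. Genes were colony-PCR amplified, MiSeq 2 × 250 sequenced and CDR-length filtered. A clone's polyreactivity label is that of its gate of origin.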

Sequence	polyreactivity (PSR sort gate)
QVQLVESGGGLVQAGGSLRLSCAASGIIFYSNTMGWYRQAPGKERELVAGISRSGSSTYYADSVKGRFTISRDIAKNTVYLQMNSLKPEDTAVYYCADYRYGVTNAYGYWGQGTQVTVSS	high polyreactivity
QVQLVESGGGLVQAGGSLRLSCAASGIIFYSNTMGWYRQAPGKERELVAGISRSGSSTYYADSVKGRFTISRDNAKNTVYLQMNSLKPEDTAVYYCAAYRYGVTNAYGYWGQGTQVTVSS	high polyreactivity
QVQLVESGGGLVQAGGSLRLSCAASGIIFYSYAMGWYRQAPGKERELVAAISWSGGSTYYADSVKGRFTISRDNAKNTVYLQMNSLKPEDTAVYYCAKDGYPYLSWLRSAHYDYWGQGTQVTVSS	low polyreactivity
QVQLVESGGGLVQAGGSLRLSCAASGIIFYVNAMGWYRPAPGKDRELVAAITFGGDSTYYADSVKGRFTITRDNAKNTVYLQMNSLKQEDTAVYYWAAEGLSLGGYYYWGQGTQVTVSS	low polyreactivity
QVQLVESGGGLVQAGGSLRLSCAASGIIFYWNAMGWYRQAPGKEREFVASISGSGGSTYADSVKGRFTISRDNAKKTVYLQMNSLKPEDTAVYYCAADFSNVGVQHDYYWGQGTQVTVSS	high polyreactivity
QVQLVESGGGLVQAGGSLRLSCAASGIIFYYYAMGWYRQAPGKERELVACISYSGGSTYADSVKGRFTISRDNAKNTVYLQMNSLKPEDTAVYYCAADYDYGGHWYDYWGQGTQVTVSS	low polyreactivity
QVQLVESGGGLVQAGGSLRLSCAASGIIFYYYGKGWYRQAPGKEREFVAAISTSGGNTYYADSVKGRFTISRDNAKNTVYLQMNSLKPEDTAVYYCAADDWPWGDAGVDYWGQGTQVTVSS	low polyreactivity
QVQLVESGGGLVQAGGSLRLSCAASGIIFYYYTIGWYRPAPGKERELVASITWSGGGSTYYADSVKGRFTISRDNAKNTVYLQMNCLNPEDTAVYYCNADEYYSYYYWGQGTQVTVSS	low polyreactivity
QVQLVESGGGLVQAGGSLRLSCAASGIIFYYYTMGWYRQAPGKERELVAAISFSGSNTYYADSVKGRFTISRDNAKNTVYLQMNSLKPEDTAVYYCAARARKDSNRRTYGYWGQGTQVTVSS	high polyreactivity
QVQLVESGGGLVQAGGSLRLSCAASGIIFYYYTMGWYRQAPGKERELVASISRDGGSTHYADSVKGRFTISRDNAKNTVYLLMNSLKPEDTAVYYCAARDPTGSSYAFYRRKVYYWGQGTQVTVSS	high polyreactivity
QVQLVESGGGLVQAGGSLRLSCAASGIIIKNYSMGWYRQAPGKEREFVAAISYSGTNTYYADSVKGRFTISRDYAKNTVYLQMNSLKPEDTAVYYCARRKTVVYLAGGRRDYYSWGQGTQVTVSS	high polyreactivity
QVQLVESGGGLVQAGGSLRLSCAASGIIILEYVMGSYRQAPGKERELVAAINSGGSTYYADSVKGRFTISRDNAKNTVYLQMNSLKPEDTAVYYCAADDYYKFDYWGQGTQVTVSS	low polyreactivity
QVQLVESGGGLVQAGGSLRLSCAASGIIIQYYAMGWYRQAPGKERELVATITLRGGITYYADSVKGRFTISRDNAKNTVYLQMNCLKPEDTAVYYCNTDQGTTSDYGYWGQGTQVTVSS	low polyreactivity
QVQLVESGGGLVQAGGSLRLSCAASGIIIRKYAMGWYRQAPGKERELVAAITTRGSRTYYADSVKGRFTISRDNAKNTVYFEMNSLKPEDTAVYYCAADFGYAWWWYDTYGYWGQGTQVTVSS	high polyreactivity
QVQLVESGGGLVQAGGSLRLSCAASGIIIRKYAMGWYRQAPGKERELVAAITTRGSRTYYADSVKGRFTISRDNAKNTVYLQMNSLKPEDTAVYYCAADFGYAWWWYDTYGYWGQGTQVTVSS	high polyreactivity
QVQLVESGGGLVQAGGSLRLSCAASGIIISLYAMGWYSQAPGKERELVATISTGGGTYYADSVKGRFTISRDNAKNTVYLQINSLKPEDTAVYYCAARRSYYGRSYYYWGQGTQVTVSS	high polyreactivity
QVQLVESGGGLVQAGGSLRLSCAASGIIIWTNVMGWYRQAPGKEREFVAAISRSGGSTYYADSVKGRFTISRDNAKNTVYLQMNSLKPEDTAVYYCAARLSYSVQKFDYWGQGTQVTVSS	high polyreactivity
